Source: US20070265189A1 (published 2007)

These binders were tested against T1, Soluble IGF-1R (sIGF-1R), R&D Systems Cat. # 391-GR/CF (UniProt P08069 31-935, limits assumed) (assay: phage ELISA).
T1 construct: extracellular domain

Row | Binder | IGF-1R/IR comparison | Ratio over Background
1 | FFYRCLSRLLGGQLGSRLGLSCIGD [20C-3-E4-IGFR] | 6 | 7.7
2 | AETSVQVGWIRLQSVWPGEHWNTVDPFYHKLSELLRGSGA [B6L-4-D7-IR] | 3.4 | 4.8
3 | VATSQGFYSGLSELLQGGGNV [20E2B-3-E12-IGFR] | 7.3 | 6
4 | SGAKVIVVTGDSGDPFYHKLSELLQGS [B6Hα-2-C10-IR] | 5.3 | 5.8
5 | SAAQLFFQESFYDWFLRQVAESSQPN [H2CA-4-F11-IGFR] | 6.7 | 6.8
6 | LSSDGQFYRALNLLLQGSAGR [20E2B-2-B7-IGFR] | 6.7 | 6.1
7 | GRTMAVMAAGGPDDPFYHKLSELVQGG [B6Hα-2-D6-IR] | 4.4 | 4.4
8 | SACQFDCHENFYDWFARQVSGGAAYG [H2CA-4-H8-IGFR] | 9.4 | 9.2
9 | RGIVAMVEATEVGSDHDPFYHKLSELVQGS [B6Hα-2-C7-IR] | 6.7 | 6.7
10 | LSVALSFYDALGQLVAGEGRW [20E2A-3-A12-IGFR] | 3.9 | 4.3
11 | RFDPFYSYFVNLLGASA [NNRPγ-4-A7-IR] | 4.9 | 6.3
12 | GCVVEWQKWHGASDPFYHKLSELGGCS [B6Hα-3-F10-IR] | 4.6 | 8.8
13 | ASSASGFYELLQRLAGLGLEV [20E2B-3-C4-IGFR] | 6.2 | 20.4
14 | QGNVLDFYGWIGRLLAKQGSD [20E2B-3-D12-IGFR] | 7.3 | 6.2
15 | DSVGDNFYQLLESLVGGHGVG [20E2B-3-D6-IGFR] | 6.9 | 17.8
16 | GCEVIVEEGDSADPFYHKLSELCQGS [B6Hα-2-D1-IR] | 4.2 | 5.4
17 | PGTDLGFYQALRCVVIQGACD [20E2B-2-B2-IGFR] | 8.1 | 4.9
18 | RQGTGSFYLMLEQLLVGARGP [20E2B-4-G11-IGFR] | 7 | 4.5
19 | NSRDGGFYLQLERLLGFPVTG [20E2B-3-D4-IGFR] | 9.6 | 7.9
20 | ICTGQGFYQVLCGLLRGTSAR [20E2B-2-B3-IGFR] | 7.4 | 5.3

Row | Binder | IGF-1R/IR comparison | Ratio over Background
21 | LGVTDGFYAALGYLIHGVGQF [20E2B-3-D11-IGFR] | 7.6 | 12.2
22 | QPDHSYFYSLLQELVGSEERL [20E2B-4-F9-IGFR] | 7.7 | 14.7
23 | QPAPDGFYSALMKLIGRGGVS [20E2B-3-C8-IGFR] | 8.9 | 15.6
24 | RCQGTGFYTCIQELIGFGDPD [20E2B-4-H9-IGFR] | 5.6 | 5.2
25 | VGTVAGFYDAIAQLVARASRV [20E2A-3-C7-IGFR] | 5.1 | 5.4
26 | AVRATRFDEAFYDWFVRQISDGQGNK [H2CA-4-F6-IGFR] | 6.4 | 7.3
27 | AQPCGGFYGLLEQLVGRSVCD [20E2B-4-F10-IGFR] | 7.8 | 17.3
28 | IWATGDFYRLLSQLVMGRVGT [20E2B-2-B8-IGFR] | 7.2 | 5.7
29 | GGTKAVAKVGTRDDPFYHKLSELLQGS [B6Hα-4-G8-IR] | 3.6 | 6.1
30 | IIGGFYSYFNSVLRLGT [NNRPγ-4-A1-IR] | 6 | 10.9
31 | VNQSGSIHENFYDWFERQVSHQRGVR [H2CA-4-F10-IGFR] | 5.9 | 5.7
32 | QFYGCLLDLSLGVPSFGWRRRCITA [20C-3-A4-IGFR] | 7.6 | 8.8
33 | PAGPCGFYCGLGLLLHGDQSP [20E2B-4-H8-IGFR] | 5.9 | 5.3
34 | RFSTDGFYQYLLALVGGGPVG [20E2B-1-A11-IGFR] | 9.7 | 9.5
35 | GCAVVEEAERSRGDPFYHKLSELIQGC [B6Hα-3-E7-IR] | 4.3 | 5.6
36 | MMVVDGFYDALHQLVVAQSLG [20E2A-3-D10-IGFR] | 3.9 | 6.9
37 | RGKTAAVIVGRPADPFYHKLSELLQGG [B6Hα-3-E8-IR] | 4.8 | 5.3
38 | TLRSPTFYDWLEMVLTHGQGG [20E2B-1-A8-IGFR] | 5 | 4.4
39 | EGSGFYGYFFSLLGLQG [NNRPγ-4-A9-IR] | 7.1 | 10

What follows are binders tested against T2, soluble human insulin receptor-immunoglobulin heavy chain chimera (sIR-Fc; Bass et al., 1996) (human, UniProt P06213 28-956, limits assumed) (assay: phage ELISA).
T2 construct: extracellular domain; also called soluble IR (Bass construct); not shown: immunoglobulin heavy chain constant domains

Row | Binder | IR/IGF-1R comparison | Ratio over Background
40 | FFYRCLSRLLGGQLGSRLGLSCIGD [20C-3-E4-IGFR] | 0.2 | 1.3
41 | AETSVQVGWIRLQSVWPGEHWNTVDPFYHKLSELLRGSGA [B6L-4-D7-IR] | 0.3 | 1.4
42 | VATSQGFYSGLSELLQGGGNV [20E2B-3-E12-IGFR] | 0.1 | 0.8
43 | SGAKVIVVTGDSGDPFYHKLSELLQGS [B6Hα-2-C10-IR] | 0.2 | 1.1
44 | SAAQLFFQESFYDWFLRQVAESSQPN [H2CA-4-F11-IGFR] | 0.1 | 1
45 | LSSDGQFYRALNLLLQGSAGR [20E2B-2-B7-IGFR] | 0.1 | 0.9
46 | GRTMAVMAAGGPDDPFYHKLSELVQGG [B6Hα-2-D6-IR] | 0.2 | 1
47 | SACQFDCHENFYDWFARQVSGGAAYG [H2CA-4-H8-IGFR] | 0.1 | 1
48 | RGIVAMVEATEVGSDHDPFYHKLSELVQGS [B6Hα-2-C7-IR] | 0.1 | 1
49 | LSVALSFYDALGQLVAGEGRW [20E2A-3-A12-IGFR] | 0.3 | 1.1
50 | RFDPFYSYFVNLLGASA [NNRPγ-4-A7-IR] | 0.2 | 1.3
51 | GCVVEWQKWHGASDPFYHKLSELGGCS [B6Hα-3-F10-IR] | 0.2 | 1.9
52 | ASSASGFYELLQRLAGLGLEV [20E2B-3-C4-IGFR] | 0.2 | 3.3
53 | QGNVLDFYGWIGRLLAKQGSD [20E2B-3-D12-IGFR] | 0.1 | 0.9
54 | DSVGDNFYQLLESLVGGHGVG [20E2B-3-D6-IGFR] | 0.1 | 2.6
55 | GCEVIVEEGDSADPFYHKLSELCQGS [B6Hα-2-D1-IR] | 0.2 | 1.3
56 | PGTDLGFYQALRCVVIQGACD [20E2B-2-B2-IGFR] | 0.1 | 0.6
57 | RQGTGSFYLMLEQLLVGARGP [20E2B-4-G11-IGFR] | 0.1 | 0.6
58 | NSRDGGFYLQLERLLGFPVTG [20E2B-3-D4-IGFR] | 0.1 | 0.8
59 | ICTGQGFYQVLCGLLRGTSAR [20E2B-2-B3-IGFR] | 0.1 | 0.7

Row | Binder | IR/IGF-1R comparison | Ratio over Background
60 | LGVTDGFYAALGYLIHGVGQF [20E2B-3-D11-IGFR] | 0.1 | 1.6
61 | QPDHSYFYSLLQELVGSEERL [20E2B-4-F9-IGFR] | 0.1 | 1.9
62 | QPAPDGFYSALMKLIGRGGVS [20E2B-3-C8-IGFR] | 0.1 | 1.8
63 | RCQGTGFYTCIQELIGFGDPD [20E2B-4-H9-IGFR] | 0.2 | 0.9
64 | VGTVAGFYDAIAQLVARASRV [20E2A-3-C7-IGFR] | 0.2 | 1.1
65 | AVRATRFDEAFYDWFVRQISDGQGNK [H2CA-4-F6-IGFR] | 0.2 | 1.1
66 | AQPCGGFYGLLEQLVGRSVCD [20E2B-4-F10-IGFR] | 0.1 | 2.2
67 | IWATGDFYRLLSQLVMGRVGT [20E2B-2-B8-IGFR] | 0.1 | 0.8
68 | GGTKAVAKVGTRDDPFYHKLSELLQGS [B6Hα-4-G8-IR] | 0.3 | 1.7
69 | IIGGFYSYFNSVLRLGT [NNRPγ-4-A1-IR] | 0.2 | 1.8
70 | VNQSGSIHENFYDWFERQVSHQRGVR [H2CA-4-F10-IGFR] | 0.2 | 1
71 | QFYGCLLDLSLGVPSFGWRRRCITA [20C-3-A4-IGFR] | 0.1 | 1.2
72 | PAGPCGFYCGLGLLLHGDQSP [20E2B-4-H8-IGFR] | 0.2 | 0.9
73 | RFSTDGFYQYLLALVGGGPVG [20E2B-1-A11-IGFR] | 0.1 | 1
74 | GCAVVEEAERSRGDPFYHKLSELIQGC [B6Hα-3-E7-IR] | 0.2 | 1.3
75 | MMVVDGFYDALHQLVVAQSLG [20E2A-3-D10-IGFR] | 0.3 | 1.8
76 | RGKTAAVIVGRPADPFYHKLSELLQGG [B6Hα-3-E8-IR] | 0.2 | 1.1
77 | TLRSPTFYDWLEMVLTHGQGG [20E2B-1-A8-IGFR] | 0.2 | 0.9
78 | EGSGFYGYFFSLLGLQG [NNRPγ-4-A9-IR] | 0.1 | 1.4
